# Several values for one entry are separate records, joined by “and”; a condition that tells them apart may be missing. Equal values may be shown once. Read-outs that look alike come from different tables or passages of the source.
# What was measured:
# [1] = target: human Complement Factor D (CFD), purified from human serum (human, UniProt P00746 26-253); experiment: cell-based or functional assay
# [2] = target: T1, purified human C1q (human, UniProt P02745 23-245; P02746 28-253; P02747 29-245); experiment: ELISA, antibody coated in a 1:2 titration from 10 ug/mL, purified human C1q at 5 ug/mL, HRP anti-human C1q
# T1 construct: also called Complement C1q
# T1 sequence (P02745 23-245 limits assumed, chain 1 of 3): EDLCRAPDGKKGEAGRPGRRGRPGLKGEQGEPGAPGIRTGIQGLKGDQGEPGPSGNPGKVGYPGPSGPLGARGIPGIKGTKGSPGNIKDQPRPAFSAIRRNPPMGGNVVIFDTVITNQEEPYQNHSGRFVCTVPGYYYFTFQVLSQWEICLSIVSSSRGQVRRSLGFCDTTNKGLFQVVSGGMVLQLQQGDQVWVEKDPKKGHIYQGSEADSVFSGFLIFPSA
# T1 sequence (P02746 28-253 limits assumed, chain 2 of 3): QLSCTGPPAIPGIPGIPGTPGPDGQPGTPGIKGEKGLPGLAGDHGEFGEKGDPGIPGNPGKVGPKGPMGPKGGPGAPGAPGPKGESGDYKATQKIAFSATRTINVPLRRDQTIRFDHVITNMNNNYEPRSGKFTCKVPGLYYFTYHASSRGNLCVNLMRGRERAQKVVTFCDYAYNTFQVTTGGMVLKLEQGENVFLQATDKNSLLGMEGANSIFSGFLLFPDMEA
# T1 sequence (P02747 29-245 limits assumed, chain 3 of 3): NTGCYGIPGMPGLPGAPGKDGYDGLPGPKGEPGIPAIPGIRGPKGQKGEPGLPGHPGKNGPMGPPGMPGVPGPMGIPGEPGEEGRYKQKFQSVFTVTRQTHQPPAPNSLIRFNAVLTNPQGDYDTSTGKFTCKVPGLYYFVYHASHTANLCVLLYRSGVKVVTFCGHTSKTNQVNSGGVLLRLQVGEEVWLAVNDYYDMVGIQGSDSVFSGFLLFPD
# [3] = target: Histidine-tagged FcγRI (UniProt P12314 16-288, limits assumed); experiment: SPR (Biacore T200, 25 C), His-tagged FcγRI captured on anti-His CM5 chip, antibody injected, single cycle kinetics
# Sequence of Histidine-tagged FcγRI (P12314 16-288 limits assumed): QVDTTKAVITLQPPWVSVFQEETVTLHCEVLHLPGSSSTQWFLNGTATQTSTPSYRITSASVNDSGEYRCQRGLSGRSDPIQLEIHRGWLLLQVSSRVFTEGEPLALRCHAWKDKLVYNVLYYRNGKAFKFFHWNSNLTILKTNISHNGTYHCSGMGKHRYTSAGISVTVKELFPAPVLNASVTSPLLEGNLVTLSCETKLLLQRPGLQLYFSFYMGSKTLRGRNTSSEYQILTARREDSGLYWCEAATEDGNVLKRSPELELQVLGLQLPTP
# [4] = target: Histidine-tagged FcγRIIIa (UniProt P08637 17-208, limits assumed); experiment: SPR (Biacore T200, 25 C), His-tagged FcγRIIIa captured on anti-His CM5 chip, antibody injected, single cycle kinetics
# Sequence of Histidine-tagged FcγRIIIa (P08637 17-208 limits assumed): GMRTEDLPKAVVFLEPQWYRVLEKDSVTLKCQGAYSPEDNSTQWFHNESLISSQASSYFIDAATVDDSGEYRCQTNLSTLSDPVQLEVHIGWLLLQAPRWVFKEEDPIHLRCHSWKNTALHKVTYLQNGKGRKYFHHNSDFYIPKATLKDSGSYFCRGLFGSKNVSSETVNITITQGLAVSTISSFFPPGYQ
# [5] = target: T2, recombinant human CFD mutant 1 (R157A, R207A), His-tagged (human, UniProt P00746 26-253); experiment: ELISA
# T2 construct: positions are linear positions in the mature protein; also called rhCFD-mut1-His; Mut1
# T2 sequence (P00746 26-253 R182A/R232A limits assumed): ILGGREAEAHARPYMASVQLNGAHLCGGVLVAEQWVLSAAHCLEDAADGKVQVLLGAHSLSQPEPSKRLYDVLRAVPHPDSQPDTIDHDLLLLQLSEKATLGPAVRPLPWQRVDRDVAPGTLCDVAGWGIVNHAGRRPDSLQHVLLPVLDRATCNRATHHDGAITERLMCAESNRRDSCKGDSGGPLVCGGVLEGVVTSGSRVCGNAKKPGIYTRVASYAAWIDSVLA
# [6] = target: T3, human complement factor D purified from serum (human, UniProt P00746 26-253); experiment: SPR MX96
# T3 construct: serum-purified (CompTech); also called hCFD-Comptech; CFD
# T3 sequence (P00746 26-253): as the sequence (P00746 26-253 R182A/R232A limits assumed) above, with A157R, A207R counted along it
# [7] = target: T4, recombinant cynomolgus CFD, His-tagged (cynomolgus); experiment: SPR MX96
# T4 construct: also called rcyCFD-His; recombinant Cyno-CFD
# [8] = target: T5, recombinant human CFD, His-tagged (human, UniProt P00746 26-253); experiment: SPR MX96
# T5 construct: also called rhCFD-His
# T5 sequence (P00746 26-253 limits assumed): as the sequence (P00746 26-253 R182A/R232A limits assumed) above, with A157R, A207R counted along it
# [9] = target: T2, recombinant human CFD mutant 1 (R157A, …); experiment: SPR MX96
# [10] = target: T3, human complement factor D purified from …
# [11] = target: T6, serum purified human Complement Factor D (human, UniProt P00746 26-253); experiment: SPR Biacore, antibody on protein A chip, single cycle kinetics, 25 C;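 further: antibodies captured to roughly 70 RU on the protein A surface in HBS-EP+ running buffer, with kinetic constants derived by BIAevaluation fitting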
# T6 construct: Serum purified protein flowed over the captured antibodies; also called CFD; human CFD
# T6 sequence (P00746 26-253): as the sequence (P00746 26-253 R182A/R232A limits assumed) above, with A157R, A207R counted along it
# [12] = target: T6, serum purified human Complement Factor D; experiment: SPR Biacore, antibody on protein A chip, single cycle kinetics, 37 C;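 further: antibodies captured on the protein A surface to roughly 70 RU in HBS-EP+ buffer, with rate and affinity constants fitted using BIAevaluation software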
# [13] = target: T6, serum purified human Complement Factor D; experiment: SPR Biacore, antibody on protein A chip, single cycle kinetics, 25 C; earlier run in the table (r34, Rmax 14.8);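 on koff: antibodies captured to roughly 70 RU on the protein A surface in HBS-EP+ running buffer, with kinetic constants derived by BIAevaluation fitting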;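 on kon: antibodies captured to roughly 70 RU on the protein A surface in HBS-EP+ running buffer, with kinetic constants derived by BIAevaluation fitting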
# [14] = target: T6, serum purified human Complement Factor D; experiment: SPR Biacore, antibody on protein A chip, single cycle kinetics, 37 C; earlier run in the table (r34, Rmax 17.1);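 on kon: antibodies captured on the protein A surface to roughly 70 RU in HBS-EP+ buffer, with rate and affinity constants fitted using BIAevaluation software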
# [15] = target: T2, recombinant human CFD mutant 1 (R157A, …); experiment: ELISA; remark: listed apart in the source
# [16] = target: T3, human complement factor D purified from …; remark: listed apart in the source
# [17] = target: T2, recombinant human CFD mutant 1 (R157A, …); experiment: ELISA, Mut1 Binding, Bin 3
# Sequence of human Complement Factor D (CFD), purified from human serum (P00746 26-253): as the sequence (P00746 26-253 R182A/R232A limits assumed) above, with A157R, A207R counted along it
Kd [6],Kd [7],Kd [8],Mut1 Binding (% wt) [15],Kd [16],binding result [17],Binder,other results
–,–,–,–,–,–,"OG1965 (antibody, IgG1, humanized IgG1 kappa with L234A, L235A, G237A and L443C (EU); also called 34I54I59D84S/54R101V; 34I54I59D84S (heavy) / 54R101V (light)) heavy: EVQLVESGGGLVQPGGSLRLSCAASGYTFTDYYINWVRQAPGKGLEWIGDINPITGDTDYNADFKRRFTFSLDTSKSTAYLQMSSLRAEDTAVYYCTREGPSFAYWGQGTLVTVSSASTKGPSVFPLAPSSKSTSGGTAALGCLVKDYFPEPVTVSWNSGALTSGVHTFPAVLQSSGLYSLSSVVTVPSSSLGTQTYICNVNHKPSNTKVDKKVEPKSCDKTHTCPPCPAPEAAGAPSVFLFPPKPKDTLMISRTPEVTCVVVDVSHEDPEVKFNWYVDGVEVHNAKTKPREEQYNSTYRVVSVLTVLHQDWLNGKEYKCKVSNKALPAPIEKTISKAKGQPREPQVYTLPPSREEMTKNQVSLTCLVKGFYPSDIAVEWESNGQPENNYKTTPPVLDSDGSFFLYSKLTVDKSRWQQGNVFSCSVMHEALHNHYTQKSLSCSPGK light: DIQLTQSPSSLSASVGDRVTITCRSSQTIVHSNGDTYLEWYQQKPGKAPNLLIRKVSNRFSGVPSRFSGSGSGTDFTLTISSLQPEDFATYYCFQGSHVPVTFGQGTKVEIKRTVAAPSVFIFPPSDEQLKSGTASVVCLLNNFYPREAKVQWKVDNALQSGNSQESVTEQDSKDSTYSLSSTLTLSKADYEKHKVYACEVTHQGLSSPVTKSFNRGEC","EC50, block of C3bB cleavage (Bb ELISA) [1]: 1.9 nM; EC50, block of Factor B cleavage (western blot) [1]: 7 nM; binding result [2]: no binding (tested: 10 ug/mL); binding result [3]: no binding; binding result [4]: no binding"
3.8 nM,4.9 nM,3.3 nM,–,–,–,"KCD070 (antibody, V domains shown, chimeric) VH: EIQLQQTGPELVKPGASVKISCKASGYSFTDYIILWVKQSHGKSLEWIGNINPYYDYTSYNLKFKGKATLTVDKSSSTAYMQLNSLTSEDSAVYYCARSDGYYGGDYWGQGTSVTVSS VL: DIVMTQSHKFMSTSVGDRVSITCKASQDVGTAVAWYQQKPGQSPKLLIYWASTRHTGVPDRFTGSGSGTDFTLTINNVQSEDLADYFCQQYSSYPWTFGGGTTLEIK",Mut1 Binding (% wt) [5]: 84.6 % wt; Kd [9]: 0.7 nM; Kd [10]: 1.77 nM
–,–,–,–,–,–,"54I59D / 54G101V (antibody, V domains shown, KCD119 TAF variant; full antibody captured on protein A; also called 54I59D / 4G101V 5) VH: EVQLVESGGGLVQPGGSLRLSCAASGYTFTDYYMNWVRQAPGKGLEWIGDINPITGDTDYNADFKRRFTFSLDTSKSTAYLQMNSLRAEDTAVYYCTREGPSFAYWGQGTLVTVSS VL: DIQLTQSPSSLSASVGDRVTITCRSSQTIVHSNGDTYLEWYQQKPGKAPNLLIGKVSNRFSGVPSRFSGSGSGTDFTLTISSLQPEDFATYYCFQGSHVPVTFGQGTKVEIK",koff [11]: 9.56e-05 s⁻¹; kon [11]: 1.15e+07 M⁻¹ s⁻¹ and 5.91e+06 M⁻¹ s⁻¹; kon [12]: 2.78e+07 M⁻¹ s⁻¹ and 1.36e+07 M⁻¹ s⁻¹; Kd [13]: 0.00833 nM; Kd [14]: 0.00774 nM
5.6 nM,9.9 nM,4 nM,5.15 % wt,3.47 nM,no binding,"KCD009 (antibody, V domains shown, chimeric) VH: QIQLVQSGPELKKPGETVKISCKASGYIFRNYGMNWVKQGPGKGLKWMGWINTYTGEPTYADDFKGRFAFSLETSASTAYLQISNLKNEDTATYFCVRDGPGFAYWGQGTLVTVSA VL: DVLMTQTPLSLPVSLGDQASISCRSSLIIEHSDGNTYLEWYLQKPGQSPKLLIYKVSNRFSGVPDRFSGSGSGTDFTLKISRVEADDLGVYYCFQGSHVPVTFGAGTNLELK",–
5.3 nM,6 nM,4.1 nM,7.64 % wt,1770 nM,no binding,"KCD023 (antibody, V domains shown, chimeric) VH: EVLLQQSGPELVKPGASVKIPCKASGYTFTDYNIDWVKQSHGKSLEWIGDINPNNGGINYNQKFKGKATLTVDKSSSTAYMELRSLTSEDTAVYYCGTGDYAYWGQGTLVTVSA VL: QIVLTQSPAFMSASPGEKVTLTCSASSSVSSSYLYWYQQKPGSSPKLWIYSTSNLASGVPGRFSGSGSGTSYSLTISSMEAEDAASYFCHQWTSYPPTFGAGTKLELK",–
